The text below walks through data of the DeepSol protein solubility set.

The data set in a line: soluble on expression in E. coli; label from the status in PepcDB or PDB records.
As for “MTMGKRTQAPALEVRLLREGIIESKHIVQAVVCDERGRVLSVAGNSETATFVRSALKPFQALAVTTTGTLERYDLSDRDLAIITSSHKGTIEQVRQAFNILWRADLDPSVLQCPIPQGKRSPLEYNCSGKHAGMLAICQQRHWPLNNYMDRKHPVQQLVLAKVAELLRMPAAEFISAHDDCGVPTYLLQLGQISSLYALLAASNNLDMERIVRAMTHHPSMVAGEREFDTELMRLTPGELVSKSGAEGVQCIGRLGEGMGLTIKVMDGAKRAKYAVAIHLLQQMGWITPSVAESLAEKFMNPGKYTRLEVVGELSLLLEHHHHHH”, the “soluble on expression in E. coli” value is given as “not soluble”. To “MTMIMRSIIDSLEALFSSFFSSIAPNLYEVLNFHCKKHTGMNFAEATLKNPKLTYEFLVKFFDSEMAVDVLDYLLSNFLKKYSIRAYGILKSFKSGDNKKLIEVAKLYSKVMQNGGGKDRD” belongs “not soluble”; to “MTMLLDGGPQFPGLGVGSFGAPRHHEMPNREPAGMGLNPFGDSTHAAAAAAAAAAFKLSPAAAHDLSSGQSSAFTPQGSGYANALGHHHHHHHHHHHTSQVPSYGGAASAAFNSTREFLFRQRSSGLSEAASGGGQHGLFAGSASSLHAPAGIPEPPSYLLFPGLHEQGAGHPSPTGHVDNNQVHLGLRGELFGRADPYRPVASPRTDPYAAGAQFPNYSPMNMNMGVNVAAHHGPGAFFRYMRQPIKQELSCKWIDEAQLSRPKKSCDRTFSTMHELVTHVTMEHVGGPEQNNHVCYWEECPREGKSFKAKYKLVNHIRVHTGEKPFPCPFPGCGKIFARSENLKIHKRTHTGEKPFKCEFEGCDRRFANSSDRKKHMHVHTSDKPYICKVCDKSYTHPSSLRKHMKVHESQGSDSSPAASSGYESSTPPAIASANSKDTTKTPSAVQTSTSHNPGLPPNFNEWYV”, “soluble”.

Take “MTMNANIEVRLKSPAHPGGFIKHEIIEPLALSVSNAAEVLGVSRAALSALLNERAHLPPEMALRIEKAFGVSMDTLMRMQNSYDIAQTRKRAEEIKVAPFSGKPIESNSVV”: the “soluble on expression in E. coli” value is given as “not soluble”. In the case of “MTMTMSYKAIEKIPRCSWNREEPGEQWNKIYSVETGLLGTYSFEWQSQVANKTMRKRNTNSICGRQHEPHCPVSITRAIAQPQLLTFPDSLASRGGHMTQSGQCHVSGSLLGRGHKSRGR” it was “soluble”. As to “MTNEADKFVVDVIYALPTQQKVISVSVLPGTSAIDIVRQSNMVSFFPEIELETVKLGVFSNVVKHDQVILPGQRVEIYRPLIADPKDVRRRRADKAKDEGRANKVTGGRVS”, the “soluble on expression in E. coli” value is reported as “soluble”.

Consider “MTNEFEILKPGKLLLASANLLDPNFKRTVLLMCEHNEEGSIGFILNKPMEFKVCEAISGFDEIDEPLHMGGPVQVDTVHVLHTRGDVIDGAVEVIPGLFWGGDKEQLSYLINTGVIKASEVRFFLGYAGWSAGQLEAEFEEGSWYTADASSEQVFTDEYERMWSRSVRSKGGEYCYVANSPELPGMNLEHHHHHH”, for which the “soluble on expression in E. coli” value is given as “not soluble”. On to “MTNLNYQQTHFVMSAPDIRHLPSDTGIEVAFAGRSNAGKSSALNTLTNQKSLARTSKTPGRTQLINLFEVADGKRLVDLPGYGYAEVPEEMKRKWQRALGEYLEKRQSLQGLVVLMDIRHPLKDLDQQMIEWAVDSNIAVLVLLTKADKLASGARKAQLNMVREAVLAFNGDVQVETFSSLKKQGVDKLRQKLDTWFSEMQPVEETQDGE”, for which the “soluble on expression in E. coli” value is listed as “soluble”. As to “MTNNDTTLQLSSVLNRECTRSRVHCQSKKRALEIISELAAKQLSLPPQVVFEAILTREKMGSTGIGNGIAIPHGKLEEDTLRAVGVFVQLETPIAFDAIDNQPVDLLFALLVPADQTKTHLHTLSLVAKRLADKTICRRLRAAQSDEELYQIITDTEGTPDEA”, the “soluble on expression in E. coli” value is listed as “soluble”. In the case of “MTPDHLLMLVALATFQKGIVPPTPAMELVMQVGACYHALTDAPRMGKLRLFLGKKPMAKLEQFLTEIENETDADF” it was “not soluble”; in that of “MTPFAEAVRQLRERKGVTQKEMAAAIGVSPAYLSALEHGKRGKPSFDLLQRIAGYFNIIWDEAEELFFLAGSSDPKVVIDTVGLPPQYTAFANRLARDIRKLPPSVVEELSAVLQKSRSCD”, “not soluble”. In the case of “MTPLERYQADLQRPDFFHDAAQANAVKHLQRLYDDLVAADHAKPGLFGKLLGRKSGGPVKGLYFWGGVGRGKTYLVDTFFESLPFEQKVRTHFHRFMKRVHEELKTLKGEKNPLTIIGKRFADEARVICFDEFFVSDITDAMILATLLEELFKNGVSLVATSNIVPDGLYKDGLQRARFLPAIALLKEHTEIVNVDSGVDYRLRALEQAELFHWPLSEQVEEEMARSFKALTPDCAKAQRDEALMIENREIRARLTCDDVAWFEFRELCDGPRSQNDYIELAKIFHAVLISNVEQMGVTKDDMARRFINLVDEFYDRSVKLIISAEVELKDLYSGGRLEFEFQRTLSRLLEMQSHEYLTRPHRPAAALEHHHHHH” it was “not soluble”; in that of “MTQATPFQLPPLALYVHIPWCVRKCPYCDFNSHAAGPELPEEAYVDALLADLEQDLRHVHGRRLGSIFFGGGTPSLFSAKALGRLLEGVERRVGFADGIEITLEANPGTFEQVKFADYRRLGINRLSIGVQSFQADKLQALGRIHDGAEAVRAADMARQAGFDNFNLDLMHGLPGQSLDDALADLRQALALAPTHLSWYQLTMEPNTVFWSQPPELPEDDILWDIQEAGQALLDEHGYRQYETSAYARDGLRARHNLNYWSFGDFLGIGAGAHAKLSAPDGRIVRTWKTRLPKDYLNPQKAFQAGERPLEAADLPFEFMMNVLRLVDGVPAALYPQRTGQPLAAIADACAAARDAGLLADDPQHLRPSERGQLFLNDLLQHFLP”, “not soluble”. In the case of “MTQIPPSRLHSPLDRLLVEAQRALDTVFGNPPAERPNPAGDTPDAALAPAQRQHAAGLMRINHVGEVCAQGLYFGQAAVARDDHTRQHLLTAAQEETDHLAWCADRLRELESRPSLFNPLWYAGSYALGAVAGLRGDDWSLGFVVETERQVEAHLDEHLETLPETDQRSRAILRVMKIDEARHADHAEQAGARILPPPIPSAMALASKLMKTIAYRFLEHHHHHH” it was “not soluble”; in that of “MTQLPPAIFLMGPTAAGKTDLAIELTKVLPCELISVDSALVYRGMDIGTAKPSRELLAQFPHRLIDILDPAESYSAADFRTDALAAMADITARGKIPLLVGGTMLYYKALLEGLADMPAADPQVRAELEEEAARLGWQALHDQLAAVDPESAARIHPNDPQRLTRALEVYRVSGLTMTAHRQRQLAQSTEAGASGRSQLPYTVANLAIAPANRQVLHQRIAQRFTQMLEQGFIDEVVALRSRSDLHAGLPSIRAVGYRQVWDHLDGKLTSAEMQERGIIATRQLAKRQFTWLRSWADLQWLDSLDCDNLPRALKYLGTISILSLEHHHHHH”, “not soluble”. “MTQPDRGKDRAGRRTKRFLTPSEKYEIWLQLVRQEVTIAEAAEQQQVDRSTIMRIRTVAKEGALAALAASKPGVAAAQRDYEMEAAKAEIARLSEAVKQMAVKLTLVEGKGGWA”: the “soluble on expression in E. coli” value was “not soluble”. In the case of “MTQSDYIESSEHIKDTQIGYCKYGHGPNYILAICGAVGCYKKDWPLKLLSHFPPDQVTIVGIDPPGYGTSRPPERKQEVQRCMKDSEYCLGLMETLKLEPFTVMGWSEGARTTVHVAAKGKEKVNRMIVMAGATKVNHLGAMAFKGMRETNHWLAAGRQPYLDHYSPETLRTQWAALCDVVDQVHSFCGGRFPCDLVLPQVKCPTLVMNGGLDRFCGDPNVCFIPVLKSLAKVEIHAQGGHDFYLKYPKWFSGKVLEFLKSTEKK”, the “soluble on expression in E. coli” value was “not soluble”. In the case of “MTQTQPVTPTPPASFQTQHDPRTRLGATPLPGGAGTRFRLWTSTARTVAVRVNGTEHVMTSLGGGIYELELPVGPGARYLFVLDGVPTPDPYARFLPDGVHGEAEVVDFGTFDWTDADWHGIKLADCVFYEVHVGTFTPEGTYRAAAEKLPYLKELGVTAIQVMPLAAFDGQRGWGYDGAAFYAPYAPYGRPEDLMALVDAAHRLGLGVFLDVVYNHFGPSGNYLSSYAPSYFTDRFSSAWGMGLDYAEPHMRRYVTGNARMWLRDYHFDGLRLDATPYMTDDSETHILTELAQEIHELGGTHLLLAEDHRNLPDLVTVNHLDGIWTDDFHHETRVTLTGEQEGYYAGYRGGAEALAYTIRRGWRYEGQFWAVKGEEHERGHPSDALEAPNFVYCIQNHDQIGNRPLGERLHQSDGVTLHEYRGAAALLLTLPMTPLLFQGQEWAASTPFQFFSDHAGELGQAVSEGRKKEFGGFSGFSGEDVPDPQAEQTFLNSKLNWAEREGGEHARTLRLYRDLLRLRREDPVLHNRQRENLTTGHDGDVLWVRTVTGAGERVLLWNLGQDTRAVAEVKLPFTVPRRLLLHTEGREDLTLGAGEAVLVG” it was “soluble”; in that of “MTRAKQIILWASLSAMPLIAQASERSDDEIKALVYQAILERPEIILQAVEQLQQAEEAAQAASAHAALTENRDSLFNDPNAPVLGNPEGDVTVVEFFDYNCPYCRRAMAEVQGLVDADPNVRLVYREWPILGEGSDFAARAALAARQQGKYEAFHWALMGMSGKANETGVLRIAREVGLDTEQLQRDMEAPEVTAHIAQSMALAQKLGFNGTPSFVVEDALVPGFVEQSQLQDAVDRARKAAAK”, “not soluble”; in that of “MTRGRVIQVMGPVVDVKFENGHLPAIYNALKIQHKARNENEVDIDLTLEVALHLGDDTVRTIAMASTDGLIRGMEVIDTGAPISVPVGQVTLGRVFNVLGEPIDLEGDIPADARRDPIHRPAPKFEELATEVEILETGIKVVDLLAPYIKGGKIGLFGGAGVGKTVLIQELIHNIAQEHGGISVFAGVGERTREGNDLYHEMKDSGVISKTAMVFGQMNEPPGARMRVALTGLTMAEYFRDEQGQDGLLFIDNIFRFTQAGSEVSALLGRMPSAIGYQPTLATEMGQLQERITSTAKGSITSIQAIYVPADDYTDPAPATTFSHLDATTNLERKLAEMGIYPAVDPLVSTSRALAPEIVGEEHYQVARKVQQTLERYKELQDIIAILGMDELSDEDKLVVHRARRIQFFLSQNFHVAEQFTGQPGSYVPVKETVRGFKEILEGKYDHLPEDRFRLVGRIEEVVEKAKAMGVEV”, “soluble”. Turning to “MTRILPCLFLVLLAAAPLLANPANPLNLKKHHGVFCDVCKALVEGGEKVGDDDLDAWLDVNIGTLCWTMLLPLHHECEEELKKVKKELKKDIENKDSPDKACKDVDLC”, the “soluble on expression in E. coli” value is reported as “not soluble”. Consider “MTRPDNEPARLRSVAENLAAEAAAFVRGRRAEVFGISRAGDGDGAVRAKSSPTDPVTVVDTDTERLLRDRLAQLRPGDPILGEEGGGPADVTATPSDRVTWVLDPIDGTVNFVYGIPAYAVSIGAQVGGITVAGAVADVAARTVYSAATGLGAHLTDERGRHVLRCTGVDELSMALLGTGFGYSVRCREKQAELLAHVVPLVRDVRRIGSAALDLCMVAAGRLDAYYEHGVQVWDCAAGALIAAEAGARVLLSTPRAGGAGLVVVAAAPGIADELLAALQRFNGLEPIPDALEHHHHHH”, for which the “soluble on expression in E. coli” value is “soluble”.
